# From patent US20150344570A1 (published 2015)
# T1: FcγRIIb extracellular domain with C-terminal His tag (human, UniProt P31994 43-217)
# T1 construct: extracellular domain; also called FcgRIIb; 2b; not shown: His tag at the C terminus
# T1 sequence (looked up): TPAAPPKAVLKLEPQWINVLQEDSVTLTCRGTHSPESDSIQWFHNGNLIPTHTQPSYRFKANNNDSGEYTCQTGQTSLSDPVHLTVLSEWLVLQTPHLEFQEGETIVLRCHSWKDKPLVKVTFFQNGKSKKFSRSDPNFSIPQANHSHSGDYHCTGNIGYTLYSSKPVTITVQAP
# B1: GpH7-A5/GpH7-B3 variant G236_09D/GpL16-k0 (antibody, human IgG1, kappa)
# heavy 1: not shown
# heavy 2: not shown
# light: DIVMTQSPLSLPVTPGEPASISCQASESLVHSNRNTYLHWYLQKPGQSPQLLIYKVSNRFSGVPDRFSGSGSGTDFTLKISRVEAEDVGVYYCSQNTHVPPTFGQGTKVEIERTVAAPSVFIFPPSDEQLKSGTASVVCLLNNFYPREAKVQWKVDNALQSGNSQESVTEQDSKDSTYSLSSTLTLSKADYEKHKVYACEVTHQGLSSPVTKSFNRGEC
# notes: also called He Ab G236_09D
# B2: GpH7-A5/GpH7-B3 variant L328_02A/GpL16-k0 (antibody, human IgG1, kappa)
# heavy 1: not shown
# heavy 2: not shown
# light: B1 light
# notes: also called He Ab L328_02A
# B3: GpH7-A5/GpH7-B3 variant S324_06M/GpL16-k0 (antibody, human IgG1, kappa)
# heavy 1: not shown
# heavy 2: not shown
# light: B1 light
# notes: also called He Ab S324_06M
# B4: GpH7-A5/GpH7-B3 variant S267_06M/GpL16-k0 (antibody, human IgG1, kappa)
# heavy 1: not shown
# heavy 2: not shown
# light: B1 light
# notes: also called He Ab S267_06M
# B5: GpH7-A5/GpH7-B3 variant K326_08L/GpL16-k0 (antibody, human IgG1, kappa)
# heavy 1: not shown
# heavy 2: not shown
# light: B1 light
# notes: also called He Ab K326_08L
# B6: GpH7-A5/GpH7-B3 variant K326_06M/GpL16-k0 (antibody, human IgG1, kappa)
# heavy 1: not shown
# heavy 2: not shown
# light: B1 light
# notes: also called He Ab K326_06M
# B7: GpH7-A5/GpH7-B3 variant P238_15Y/GpL16-k0 (antibody, human IgG1, kappa)
# heavy 1: not shown
# heavy 2: not shown
# light: B1 light
# notes: also called He Ab P238_15Y
# B8: GpH7-A5/GpH7-B3 variant I336_08L/GpL16-k0 (antibody, human IgG1, kappa)
# heavy 1: not shown
# heavy 2: not shown
# light: B1 light
# notes: also called He Ab I336_08L
# B9: GpH7-A5/GpH7-B3 variant L235_20W/GpL16-k0 (antibody, human IgG1, kappa)
# heavy 1: not shown
# heavy 2: not shown
# light: B1 light
# notes: also called He Ab L235_20W
# B10: GpH7-A5/GpH7-B3 variant S267_19Q/GpL16-k0 (antibody, human IgG1, kappa)
# heavy 1: not shown
# heavy 2: not shown
# light: B1 light
# notes: also called He Ab S267_19Q
# B11: GpH7-A5/GpH7-B3 variant K326_04F/GpL16-k0 (antibody, human IgG1, kappa)
# heavy 1: not shown
# heavy 2: not shown
# light: B1 light
# notes: also called He Ab K326_04F
# B12: GpH7-A5/GpH7-B3 variant P238_09D/GpL16-k0 (antibody, human IgG1, kappa)
# heavy 1: not shown
# heavy 2: not shown
# light: B1 light
# notes: also called He Ab P238_09D
# B13: GpH7-A5/GpH7-B3 variant T335_07I/GpL16-k0 (antibody, human IgG1, kappa)
# heavy 1: not shown
# heavy 2: not shown
# light: B1 light
# notes: also called He Ab T335_07I
# B14: GpH7-A5/GpH7-B3 variant H268_13S/GpL16-k0 (antibody, human IgG1, kappa)
# heavy 1: not shown
# heavy 2: not shown
# light: B1 light
# notes: also called He Ab H268_13S
# B15: GpH7-A5/GpH7-B3 variant I332_15Y/GpL16-k0 (antibody, human IgG1, kappa)
# heavy 1: not shown
# heavy 2: not shown
# light: B1 light
# notes: also called He Ab I332_15Y
# B16: GpH7-A5/GpH7-B3 variant K334_14T/GpL16-k0 (antibody, human IgG1, kappa)
# heavy 1: not shown
# heavy 2: not shown
# light: B1 light
# notes: also called He Ab K334_14T
# B17: GpH7-A5/GpH7-B3 variant L328_13S/GpL16-k0 (antibody, human IgG1, kappa)
# heavy 1: not shown
# heavy 2: not shown
# light: B1 light
# notes: also called He Ab L328_13S
# B18: GpH7-A5/GpH7-B3 variant K334_05P/GpL16-k0 (antibody, human IgG1, kappa)
# heavy 1: not shown
# heavy 2: not shown
# light: B1 light
# notes: also called He Ab K334_05P
# B19: GpH7-A5/GpH7-B3 variant H268_10E/GpL16-k0 (antibody, human IgG1, kappa)
# heavy 1: not shown
# heavy 2: not shown
# light: B1 light
# notes: also called He Ab H268_10E
# B20: GpH7-A5/GpH7-B3 variant P238_04F/GpL16-k0 (antibody, human IgG1, kappa)
# heavy 1: not shown
# heavy 2: not shown
# light: B1 light
# notes: also called He Ab P238_04F
# B21: GpH7-A5/GpH7-B3 variant K326_19Q/GpL16-k0 (antibody, human IgG1, kappa)
# heavy 1: not shown
# heavy 2: not shown
# light: B1 light
# notes: also called He Ab K326_19Q
# B22: GpH7-A5/GpH7-B3 variant H268_01G/GpL16-k0 (antibody, human IgG1, kappa)
# heavy 1: not shown
# heavy 2: not shown
# light: B1 light
# notes: also called He Ab H268_01G
# B23: GpH7-A5/GpH7-B3 variant V266_06M/GpL16-k0 (antibody, human IgG1, kappa)
# heavy 1: not shown
# heavy 2: not shown
# light: B1 light
# notes: also called He Ab V266_06M
# B24: GpH7-A5/GpH7-B3 variant T335_10E/GpL16-k0 (antibody, human IgG1, kappa)
# heavy 1: not shown
# heavy 2: not shown
# light: B1 light
# notes: also called He Ab T335_10E
# B25: GpH7-A5/GpH7-B3 variant P331_16H/GpL16-k0 (antibody, human IgG1, kappa)
# heavy 1: not shown
# heavy 2: not shown
# light: B1 light
# notes: also called He Ab P331_16H
# B26: GpH7-A5/GpH7-B3 variant K334_04F/GpL16-k0 (antibody, human IgG1, kappa)
# heavy 1: not shown
# heavy 2: not shown
# light: B1 light
# notes: also called He Ab K334_04F
# B27: GpH7-A5/GpH7-B3 variant I332_04F/GpL16-k0 (antibody, human IgG1, kappa)
# heavy 1: not shown
# heavy 2: not shown
# light: B1 light
# notes: also called He Ab I332_04F
# B28: GpH7-A5/GpH7-B3 variant I332_06M/GpL16-k0 (antibody, human IgG1, kappa)
# heavy 1: not shown
# heavy 2: not shown
# light: B1 light
# notes: also called He Ab I332_06M
# Target: T1, FcγRIIb extracellular domain with …
# Test: SPR, relative binding, HeCon Ab = 100
# Experimental: Analysis of interaction between objective antibody and the FcγR was carried out using Biacore T100 (GE Healthcare). HBS-EP+ (GE Healthcare) was used as the running buffer, and the measurement temperature was set to 25° C. Chips produced by immobilizing the antigen peptide by the amine coupling method to a Series S Sencor Chip CM5 (GE Healthcare), or alternatively, chips produced by allowing preliminarily biotinylated antigen peptides to interact with and immobilize onto a Series S Sensor Chip SA (certified) (GE Healthcare) were used. Antibodies of interest were captured onto an antigen peptide-immobilized chip, and allowed to interact to each FcγR diluted with running buffer. To regenerate and repeatedly use the chip, the antibodies captured on the chip were washed off by reacting 10 mM glycine-HCl, pH 1.5.
row,He/Con_2b,Binder
1,167 % of control,B1
2,144 % of control,B2
3,112 % of control,B3
4,210 % of control,B4
5,177 % of control,B5
6,165 % of control,B6
7,218 % of control,B7
8,107 % of control,B8
9,147 % of control,B9
10,218 % of control,B10
11,155 % of control,B11
12,221 % of control,B12
13,106 % of control,B13
14,160 % of control,B14
15,101 % of control,B15
16,115 % of control,B16
17,149 % of control,B17
18,105 % of control,B18
19,230 % of control,B19
20,312 % of control,B20
21,139 % of control,B21
22,144 % of control,B22
23,251 % of control,B23
24,108 % of control,B24
25,116 % of control,B25
26,111 % of control,B26
27,104 % of control,B27
28,105 % of control,B28
